Biological target: (GST-GATE16)2, P60520
Assay: BLI
Details: chain shown with the change; 5 µM (GST-GATE16)2; NCOA4 construct immobilized to the probe; parent: est. 0.105; read off a plot

(GST-GATE16)2, P60520, sequence (P60520 whole entry): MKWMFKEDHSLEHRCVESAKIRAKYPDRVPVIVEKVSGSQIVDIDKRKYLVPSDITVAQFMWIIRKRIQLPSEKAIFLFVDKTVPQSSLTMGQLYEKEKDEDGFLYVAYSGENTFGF

| response | Binder |
| --- | --- |
| 0.026 nm | biotinylated AviTag-His6-NCOA4^383−522-MBP, Q13772 486F:A (protein) SMVTEDWLVQNHQDPCKVEEVCRANEPCTSFAECVCDENCEKEALYKWLLKKEGKDKNGMPVEPKPEPEKHKDSLNMWLCPRKEVIEQTKAPKAMTPSRIADSAQVIKNSPLSEWLIRPPYKEGSPKEVPGTEDRAGKQK |
| 0.056 nm | biotinylated AviTag-His6-NCOA4^383−522-MBP, Q13772 413F:A (protein) SMVTEDWLVQNHQDPCKVEEVCRANEPCTSAAECVCDENCEKEALYKWLLKKEGKDKNGMPVEPKPEPEKHKDSLNMWLCPRKEVIEQTKAPKAMTPSRIADSFQVIKNSPLSEWLIRPPYKEGSPKEVPGTEDRAGKQK |
